What was measured:
[1] = biological target: T1, human FcγRIIB expressed on CHO cells (human, UniProt P31994 43-310); test: flow cytometry on CHO cells expressing human FcγRIIB
T1 construct: whole, on cells; also called rCHO-huFcγRIIB+
T1 sequence (looked up): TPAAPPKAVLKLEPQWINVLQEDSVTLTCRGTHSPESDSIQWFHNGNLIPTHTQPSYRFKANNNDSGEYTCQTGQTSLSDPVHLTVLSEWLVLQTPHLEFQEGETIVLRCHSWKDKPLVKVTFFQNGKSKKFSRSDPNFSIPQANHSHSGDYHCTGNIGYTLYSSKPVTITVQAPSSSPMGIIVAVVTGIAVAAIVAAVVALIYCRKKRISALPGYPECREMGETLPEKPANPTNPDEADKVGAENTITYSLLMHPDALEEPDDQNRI
Experimental: (§1) The binding of anti-CTLA-4 antibodies to human FcγRIIA, FcγRIIB, and FcγRIIIA expressed on the surface of CHO cells was measured by flow cytometry. Briefly, CHO cells were transfected with cDNA encoding for human FcγRIIA^H131, FcγRIIB, or FcγRIIIA^V158, generating the following CHO cell lines: rCHO-huFcγRIIA⁺, rCHO-huFcγRIIB⁺, and rCHO-huFcγRIIIA⁺. Binding of a dose titration of antibodies ranging from 0.0056-1000 μg/ml was performed and the primary antibodies were detected with an anti-human F(ab′) secondary antibody conjugated with Phycoerythrin (PE) (Jackson Immune Research). The samples were tested by flow cytometry and the PE mean fluorescence intensity (MFI) values were analyzed and used to generate binding curves. The antibodies tested were AGEN1884w, AGEN2041w, a reference anti-CTLA-4 IgG₁ antibody, and an IgG₁ isotype control antibody. AGEN1884w produced in two different growth media was used in this study: the growth media CD FortiCHO™ from Life Technologies Inc./Thermo (AGEN1884w-FortiCHO) and the growth media PowerCHO™ 2 from Lonza (AGEN1884w-PowerCHO). The reference anti-CTLA-4 IgG₁ antibody contains a different IgG₁ allotype from the one in AGEN1884w. The IgG₁ isotype control antibody was only tested at 1000 μg/ml.

[2] = biological target: T2, human FcγRIIIA^V158 expressed on cells (human, UniProt P08637 17-254); test: flow cytometry on CHO cells expressing human FcγRIIIA^V158
T2 construct: whole, on cells; also called rCHO-huFcγRIIIA+
Experimental: as §1

[3] = biological target: T3, recombinant cynomolgus CTLA-4-Fc (Sino Biological, #90213-C02H) (cynomolgus, UniProt P16410 36-161 (human entry)); test: suspension array (Luminex) selectivity assay as in Section 6.1.3
T3 construct: Bought protein; also called recombinant cynomolgus (rc) CTLA-4; not shown: Fc part of the bought fusion protein

[4] = biological target: T4, rhCD28-Fc (R&D, #342-CD-200) (human, UniProt P10747 19-152); test: as above
T4 construct: Bought protein; also called recombinant human CD28; not shown: Fc part of the bought fusion protein

[5] = biological target: T5, rhICOS-Fc (R&D, #169-CS-050) (human, UniProt Q9Y6W8 21-141); test: as above
T5 construct: Bought protein; also called recombinant human ICOS; not shown: Fc part of the bought fusion protein
T5 sequence: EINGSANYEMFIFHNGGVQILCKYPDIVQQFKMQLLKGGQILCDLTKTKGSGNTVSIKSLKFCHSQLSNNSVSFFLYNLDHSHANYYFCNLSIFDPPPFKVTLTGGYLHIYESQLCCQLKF

[6] = biological target: T6, rhBTLA-Fc (Sino Biological, #11896-H02H) (human, UniProt Q7Z6A9 31-157); test: as above
T6 construct: Bought protein; also called recombinant human BTLA; not shown: Fc part of the bought fusion protein
T6 sequence: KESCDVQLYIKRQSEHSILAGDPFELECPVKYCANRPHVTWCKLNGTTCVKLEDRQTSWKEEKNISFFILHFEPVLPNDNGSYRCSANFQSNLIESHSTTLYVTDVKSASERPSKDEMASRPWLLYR

[7] = biological target: T7, rhPD-1-Fc (R&D Systems, #1086-PD) (human, UniProt Q15116 25-167); test: as above
T7 construct: Bought protein; also called recombinant human PD-1; not shown: Fc part of the bought fusion protein
T7 sequence (Q15116 25-167 limits assumed): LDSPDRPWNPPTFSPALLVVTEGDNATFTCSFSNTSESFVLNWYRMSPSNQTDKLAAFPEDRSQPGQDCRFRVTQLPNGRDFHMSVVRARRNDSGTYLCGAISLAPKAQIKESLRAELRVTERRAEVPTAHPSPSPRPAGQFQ

T2 sequence (P08637 17-254 F176V limits assumed): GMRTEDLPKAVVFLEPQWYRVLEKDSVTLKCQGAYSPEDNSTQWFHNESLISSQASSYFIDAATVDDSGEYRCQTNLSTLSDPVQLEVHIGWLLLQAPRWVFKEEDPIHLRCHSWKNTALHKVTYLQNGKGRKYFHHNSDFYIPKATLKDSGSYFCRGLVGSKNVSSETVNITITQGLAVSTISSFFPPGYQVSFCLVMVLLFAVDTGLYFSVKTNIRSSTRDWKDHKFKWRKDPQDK
T4 sequence (P10747 19-152 limits assumed): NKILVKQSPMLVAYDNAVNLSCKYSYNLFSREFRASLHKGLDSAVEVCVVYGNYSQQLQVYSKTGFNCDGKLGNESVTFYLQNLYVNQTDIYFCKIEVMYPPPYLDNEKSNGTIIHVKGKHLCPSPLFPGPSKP
T3 sequence (P16410 other isoform, or with tags, fused parts or gaps C02H C02H limits assumed): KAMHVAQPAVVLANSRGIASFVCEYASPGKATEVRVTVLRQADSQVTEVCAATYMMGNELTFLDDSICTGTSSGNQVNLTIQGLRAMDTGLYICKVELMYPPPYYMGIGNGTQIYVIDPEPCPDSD

B1: AGEN2041w (antibody, human IgG2, kappa)
heavy: EVQLVESGGGLVKPGGSLRLSCAASGFTFSSYSMNWVRQAPGKGLEWVSSISSSSSYIYYADSVKGRFTISRDNAKNSLYLQMNSLRAEDTAVYYCARVGLMGPFDIWGQGTMVTVSSASTKGPSVFPLAPCSRSTSESTAALGCLVKDYFPEPVTVSWNSGALTSGVHTFPAVLQSSGLYSLSSVVTVPSSNFGTQTYTCNVDHKPSNTKVDKTVERKCCVECPPCPAPPVAGPSVFLFPPKPKDTLMISRTPEVTCVVVDVSHEDPEVQFNWYVDGVEVHNAKTKPREEQFNSTFRVVSVLTVVHQDWLNGKEYKCKVSNKGLPAPIEKTISKTKGQPREPQVYTLPPSREEMTKNQVSLTCLVKGFYPSDIAVEWESNGQPENNYKTTPPMLDSDGSFFLYSKLTVDKSRWQQGNVFSCSVMHEALHNHYTQKSLSLSPG
light: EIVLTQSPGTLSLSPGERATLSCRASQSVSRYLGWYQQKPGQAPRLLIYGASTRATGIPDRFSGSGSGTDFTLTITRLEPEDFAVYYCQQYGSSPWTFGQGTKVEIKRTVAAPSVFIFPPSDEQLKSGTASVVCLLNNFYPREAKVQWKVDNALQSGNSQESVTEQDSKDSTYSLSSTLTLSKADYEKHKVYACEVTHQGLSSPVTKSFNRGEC
notes: Human IgG2 version of AGEN1884w
B1: binds [1]; binds [2]; binds [3]. B1: no binding [4]; no binding [5]; no binding [6]. B1: no binding [7].

Source: patent US20220267443A1 (AGENUS, published 2022)
